# Measurements: patent US20150246947A1 (BAXALTA, published 2015)
# Positions of bridges follow the written chain, without caps; N, C: chain ends.
# T1: human Protein S (UniProt P07225 42-676)
# T1 chain: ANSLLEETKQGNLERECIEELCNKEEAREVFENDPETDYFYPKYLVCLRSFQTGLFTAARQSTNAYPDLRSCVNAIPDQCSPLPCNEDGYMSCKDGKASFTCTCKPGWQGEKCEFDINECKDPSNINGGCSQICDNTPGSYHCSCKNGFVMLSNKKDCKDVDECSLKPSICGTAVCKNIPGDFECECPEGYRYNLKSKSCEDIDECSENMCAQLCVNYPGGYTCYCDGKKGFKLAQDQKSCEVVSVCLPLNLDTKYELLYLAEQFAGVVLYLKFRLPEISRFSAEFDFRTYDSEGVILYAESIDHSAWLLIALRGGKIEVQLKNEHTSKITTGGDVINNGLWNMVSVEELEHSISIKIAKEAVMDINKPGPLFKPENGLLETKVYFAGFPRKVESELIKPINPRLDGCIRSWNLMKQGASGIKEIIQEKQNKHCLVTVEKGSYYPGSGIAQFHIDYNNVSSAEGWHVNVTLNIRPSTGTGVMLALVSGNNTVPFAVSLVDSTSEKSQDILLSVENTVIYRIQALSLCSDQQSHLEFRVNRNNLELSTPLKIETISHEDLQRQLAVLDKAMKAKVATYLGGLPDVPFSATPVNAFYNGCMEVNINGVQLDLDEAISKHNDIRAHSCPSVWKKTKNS
# B1: JBS3168 (peptide)
# chain: Ac-TGLCVSAGWYDYNCDHYREFT-NH2
# modifications: disulfide 4-14
# SMILES: CC(=O)N[C@H](C(=O)NCC(=O)N[C@@H](CC(C)C)C(=O)N[C@H]1CSSC[C@@H](C(=O)N[C@@H](CC(=O)O)C(=O)N[C@@H](Cc2c[nH]cn2)C(=O)N[C@@H](Cc2ccc(O)cc2)C(=O)N[C@@H](CCCNC(=N)N)C(=O)N[C@@H](CCC(=O)O)C(=O)N[C@@H](Cc2ccccc2)C(=O)N[C@H](C(N)=O)[C@@H](C)O)NC(=O)[C@H](CC(N)=O)NC(=O)[C@H](Cc2ccc(O)cc2)NC(=O)[C@H](CC(=O)O)NC(=O)[C@H](Cc2ccc(O)cc2)NC(=O)[C@H](Cc2c[nH]c3ccccc23)NC(=O)CNC(=O)[C@H](C)NC(=O)[C@H](CO)NC(=O)[C@H](C(C)C)NC1=O)[C@@H](C)O
# B2: JBS3234 (peptide)
# chain: Ac-EYYVSAGWYDYNADTYYEFE-NH2
# B3: JBS3181 (peptide)
# chain: Ac-TGLVSAGWYDYNFDHYREF-NH2
# B4: JBS3180 (peptide)
# chain: Ac-GLVSAGWYDYNFDHYREFT-NH2
# B5: JBS3251 (peptide)
# chain: Ac-QYYVVAGWYDYNTDSYYEFD-NH2
# B6: JBS3295 (peptide)
# chain: Ac-DDEVSIGWYDYNTDEYVEFW-NH2
# B7: JBS3172 (peptide)
# chain: CGLVSAGWYDYNFDCYREFT
# B8: JBS3247 (peptide)
# chain: Ac-EYYVSAGWYNYEEDSYYEFE-NH2
# B9: JBS3160 (peptide)
# chain: Ac-CGLVSAGWYDYNFCDHYREFT-NH2
# modifications: disulfide 1-14
# SMILES: CC(=O)N[C@H]1CSSC[C@@H](C(=O)N[C@@H](CC(=O)O)C(=O)N[C@@H](Cc2c[nH]cn2)C(=O)N[C@@H](Cc2ccc(O)cc2)C(=O)N[C@@H](CCCNC(=N)N)C(=O)N[C@@H](CCC(=O)O)C(=O)N[C@@H](Cc2ccccc2)C(=O)N[C@H](C(N)=O)[C@@H](C)O)NC(=O)[C@H](Cc2ccccc2)NC(=O)[C@H](CC(N)=O)NC(=O)[C@H](Cc2ccc(O)cc2)NC(=O)[C@H](CC(=O)O)NC(=O)[C@H](Cc2ccc(O)cc2)NC(=O)[C@H](Cc2c[nH]c3ccccc23)NC(=O)CNC(=O)[C@H](C)NC(=O)[C@H](CO)NC(=O)[C@H](C(C)C)NC(=O)[C@H](CC(C)C)NC(=O)CNC1=O
# B10: JBS3241 (peptide)
# chain: Ac-EYYVSAGWYDYNNDIYLEFE-NH2
# B11: JBS3169 (peptide)
# chain: TGCLVSAGWYDYNCDHYREFT
# B12: JBS3217 (peptide)
# chain: Ac-EYYVSAGWYDYNDDKYYEFE-NH2
# B13: JBS2928 (peptide)
# chain: Ac-YGLVSAGWYDYNFDHYREFT-NH2
# B14: JBS3245 (peptide)
# chain: Ac-EYYVSAGWYDYNSDTYFEFI-NH2
# B15: JBS3242 (peptide)
# chain: Ac-EYYVSAGWHDYNKDIYFEFF-NH2
# B16: JBS3215 (peptide)
# chain: MEYYVSAGWYDYNTDTYYEFE
# B17: JBS3250 (peptide)
# chain: Ac-TYYVSAGWYGYNNDRYYEFY-NH2
# B18: JBS3171 (peptide)
# chain: Ac-TCLVSAGWYDYNCDHYREFT-NH2
# modifications: disulfide 2-13
# SMILES: CC(=O)N[C@H](C(=O)N[C@H]1CSSC[C@@H](C(=O)N[C@@H](CC(=O)O)C(=O)N[C@@H](Cc2c[nH]cn2)C(=O)N[C@@H](Cc2ccc(O)cc2)C(=O)N[C@@H](CCCNC(=N)N)C(=O)N[C@@H](CCC(=O)O)C(=O)N[C@@H](Cc2ccccc2)C(=O)N[C@H](C(N)=O)[C@@H](C)O)NC(=O)[C@H](CC(N)=O)NC(=O)[C@H](Cc2ccc(O)cc2)NC(=O)[C@H](CC(=O)O)NC(=O)[C@H](Cc2ccc(O)cc2)NC(=O)[C@H](Cc2c[nH]c3ccccc23)NC(=O)CNC(=O)[C@H](C)NC(=O)[C@H](CO)NC(=O)[C@H](C(C)C)NC(=O)[C@H](CC(C)C)NC1=O)[C@@H](C)O
# B19: JBS3182 (peptide)
# chain: Ac-GLVSAGWYDYNFDHYREF-NH2
# B20: JBS3185 (peptide)
# chain: Ac-SGLVSAGWYDYNFDSYREFT-NH2
# B21: JBS3157 (peptide)
# chain: CGLVSAGWYDCYNFDHYREFT
# B22: JBS2941 (peptide)
# chain: Ac-TGLVSAGWYDYNFDHYYEFT-NH2
# B23: JBS3173 (peptide)
# chain: Ac-TCLVSAGWYDYNFDCYREFT-NH2
# modifications: disulfide 2-15 (inferred); not fully specified
# B24: JBS3237 (peptide)
# chain: Ac-EYYVSAGWYDYNTDKYYEFI-NH2
# B25: JBS3273 (peptide)
# chain: Ac-SATVSAGWYDYNKDVYFEFE-NH2
# B26: JBS3240 (peptide)
# chain: Ac-EYYVSAGWYDYNNDIYYEFI-NH2
# B27: JBS3238 (peptide)
# chain: Ac-EYYVSAGWYDYNTDRYYEFY-NH2
# B28: JBS3170 (peptide)
# chain: CGLVSAGWYDYNCDHYREFT
# B29: JBS3243 (peptide)
# chain: Ac-EYYVSAGWYDYNNDTYNEFW-NH2
# B30: JBS3246 (peptide)
# chain: Ac-EYYVSAGWYDYEHDTYLEFY-NH2
# B31: JBS3239 (peptide)
# chain: Ac-EYYVSAGWYDTNNDRYYEFI-NH2
# B32: JBS3220 (peptide)
# chain: Ac-EYTVSAGWYDYNKDTYEEFK-NH2
# B33: JBS3224 (peptide)
# chain: MEYYVSAGWYDYNTDTYYEFE
# Molecular target: T1, human Protein S
# Experiment: LANCE competition
# How it was run: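 IC50 was derived by non-linear regression of the acceptor emission in a LANCE time-resolved FRET competition assay using europium-labelled Protein S, ULight-labelled streptavidin, a biotinylated tracer peptide and three-fold titrations of unlabelled test peptide. Reactions of 50 µl contained 10 nM Protein S, 100 nM streptavidin and 300 nM tracer at final concentration (2 nM Protein S and 60 nM tracer on a Tecan F500), were kept 1 hour at room temperature, and were read at Ex 340 nm, Em 665 nm.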
row,IC50 [nM],Binder
1,604,B1
2,2.7,B2
3,9.5,B3
4,9,B4
5,0.6,B5
6,14.6,B6
7,55.2,B7
8,1.9,B8
9,981,B9
10,1.2,B10
11,544,B11
12,1.3,B12
13,3.7,B13
14,2,B14
15,67.8,B15
16,0.8,B16
17,22.7,B17

row,IC50 [nM],Binder
1,336,B18
2,20.9,B19
3,7.2,B20
4,812,B21
5,1.4,B22
6,208,B23
7,1.5,B24
8,2.3,B25
9,2,B26
10,1.3,B27
11,206,B28
12,1.3,B29
13,2.2,B30
14,2,B31
15,3.5,B32
16,1.3,B33
